In IntAct's records for PubMed 11134025:

B1: Protein kinase C-like 3 (Caenorhabditis elegans), Q19266 (parent)
chain: MSSPTSLEEDGDIKLKTRFQGQVVVLYARPPLILDDFFALLKDACKQHKKQDITVKWIDEDGDPISIDSQMELDEAVRCLNSSQEAELNIHVFVGKPELPGLPCQGEDKTVYRRGARRWKKIYLYNGHRFQAKRLNRRIQCFICHDYIWGIGRQGFRCVDCRLCVHKKCHRHVRTHCGQALQGPNIIPMAPASGSLKGARSNTSSSTTRSGGGIDNGAFHEHEIESPGSTSHDASRAMNGNGSSKWAVSLNDFRLLTVIGRGSYAKVVQAEHVSTRQIYAIKIIKKEMFNEDEDIDWVQTEKSVFEAASNYPFLVGLHSCFQTESRLFFVIEFVPGGDLMFHMQQQRKLPEEHARFYSGEIILALHFLHSRGIIYRDLKLDNVLIDAEGHIKLTDYGMCKENIKDGDLTSTFCGTPNYIAPEILRGDEYGFSVDWWALGVLMFEMMAGRSPFDIVGMQNSEENTEDYLFQIILERQIRIPRSLSVRASGILKGFLNKDPTERLGCKLDINEGLRDMKEHQFFRGFIDWEALEQKAVAPPYHPAVESDRDLTHFDHQFTDELPQLSPDNPDVIARIDQSEFDGFEYVNPLQMSREDSV
partner: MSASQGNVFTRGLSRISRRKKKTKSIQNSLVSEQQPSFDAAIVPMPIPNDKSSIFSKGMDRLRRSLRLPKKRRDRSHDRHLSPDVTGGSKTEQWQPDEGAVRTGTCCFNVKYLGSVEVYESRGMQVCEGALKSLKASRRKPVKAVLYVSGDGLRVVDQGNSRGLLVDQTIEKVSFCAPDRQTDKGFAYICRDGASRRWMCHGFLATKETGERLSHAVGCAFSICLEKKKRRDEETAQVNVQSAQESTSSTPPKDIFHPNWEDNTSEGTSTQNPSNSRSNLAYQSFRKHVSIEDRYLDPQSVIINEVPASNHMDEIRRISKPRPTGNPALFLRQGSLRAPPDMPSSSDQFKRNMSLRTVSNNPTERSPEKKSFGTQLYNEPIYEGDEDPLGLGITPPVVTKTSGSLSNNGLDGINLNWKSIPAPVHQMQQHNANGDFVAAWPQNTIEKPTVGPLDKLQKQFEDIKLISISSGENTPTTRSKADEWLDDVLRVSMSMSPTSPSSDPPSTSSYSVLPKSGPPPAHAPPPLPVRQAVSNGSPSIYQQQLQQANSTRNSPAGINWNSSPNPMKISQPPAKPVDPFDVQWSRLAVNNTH

Variants of: B1
Details: with num-1, Q9XTY6-1

| effect of a mutation on the interaction | Variant |
| --- | --- |
| decreasing interaction | MSSPTSLEEDGDIKLKTRFQGQVVVLYARPPLILDDFFALLKDACKQHKKQDITVKWIDEDGDPISIDSQMELDEAVRCLNSSQEAELNIHVFVGKPELPGLPCQGEDKTVYRRGARRWKKIYLYNGHRFQAKRLNRRIQCFICHDYIWGIGRQGFRCVDCRLCVHKKCHRHVRTHCGQALQGPNIIPMAPASGSLKGARSNTSSSTTRSGGGIDAGAFHEHEIESPGSTSHDASRAMNGNGSSKWAVSLNDFRLLTVIGRGSYAKVVQAEHVSTRQIYAIKIIKKEMFNEDEDIDWVQTEKSVFEAASNYPFLVGLHSCFQTESRLFFVIEFVPGGDLMFHMQQQRKLPEEHARFYSGEIILALHFLHSRGIIYRDLKLDNVLIDAEGHIKLTDYGMCKENIKDGDLTSTFCGTPNYIAPEILRGDEYGFSVDWWALGVLMFEMMAGRSPFDIVGMQNSEENTEDYLFQIILERQIRIPRSLSVRASGILKGFLNKDPTERLGCKLDINEGLRDMKEHQFFRGFIDWEALEQKAVAPPYHPAVESDRDLTHFDHQFTDELPQLSPDNPDVIARIDQSEFDGFEYVNPLQMSREDSV [N216A] |
| decreasing interaction | MSSPTSLEEDGDIKLKTRFQGQVVVLYARPPLILDDFFALLKDACKQHKKQDITVKWIDEDGDPISIDSQMELDEAVRCLNSSQEAELNIHVFVGKPELPGLPCQGEDKTVYRRGARRWKKIYLYNGHRFQAKRLNRRIQCFICHDYIWGIGRQGFRCVDCRLCVHKKCHRHVRTHCGQALQGPNIIPMAPASGSLKGARSNTSSSTTRSGGGIDNGAAHEHEIESPGSTSHDASRAMNGNGSSKWAVSLNDFRLLTVIGRGSYAKVVQAEHVSTRQIYAIKIIKKEMFNEDEDIDWVQTEKSVFEAASNYPFLVGLHSCFQTESRLFFVIEFVPGGDLMFHMQQQRKLPEEHARFYSGEIILALHFLHSRGIIYRDLKLDNVLIDAEGHIKLTDYGMCKENIKDGDLTSTFCGTPNYIAPEILRGDEYGFSVDWWALGVLMFEMMAGRSPFDIVGMQNSEENTEDYLFQIILERQIRIPRSLSVRASGILKGFLNKDPTERLGCKLDINEGLRDMKEHQFFRGFIDWEALEQKAVAPPYHPAVESDRDLTHFDHQFTDELPQLSPDNPDVIARIDQSEFDGFEYVNPLQMSREDSV [F219A] |
| decreasing interaction | MSSPTSLEEDGDIKLKTRFQGQVVVLYARPPLILDDFFALLKDACKQHKKQDITVKWIDEDGDPISIDSQMELDEAVRCLNSSQEAELNIHVFVGKPELPGLPCQGEDKTVYRRGARRWKKIYLYNGHRFQAKRLNRRIQCFICHDYIWGIGRQGFRCVDCRLCVHKKCHRHVRTHCGQALQGPNIIPMAPASGSLKGARSNTSSSTTRSGGGADNGAFHEHEIESPGSTSHDASRAMNGNGSSKWAVSLNDFRLLTVIGRGSYAKVVQAEHVSTRQIYAIKIIKKEMFNEDEDIDWVQTEKSVFEAASNYPFLVGLHSCFQTESRLFFVIEFVPGGDLMFHMQQQRKLPEEHARFYSGEIILALHFLHSRGIIYRDLKLDNVLIDAEGHIKLTDYGMCKENIKDGDLTSTFCGTPNYIAPEILRGDEYGFSVDWWALGVLMFEMMAGRSPFDIVGMQNSEENTEDYLFQIILERQIRIPRSLSVRASGILKGFLNKDPTERLGCKLDINEGLRDMKEHQFFRGFIDWEALEQKAVAPPYHPAVESDRDLTHFDHQFTDELPQLSPDNPDVIARIDQSEFDGFEYVNPLQMSREDSV [I214A] |
